The series can be described thus: soluble on expression in E. coli; label from the status in PepcDB or PDB records.
For “MQPYWAAIEADIERYLKKSITIRPPETVFGPMHHLTFAAPATAASTLCLAACELVGGDRSQAMAAAAAIHLVHAAAYVHEHLPLTDGSRPVSKPAIQHKYGPNVELLTGDGIVPFGFELLAGSVDPARTDDPDRILRVIIEISRAGGPEGMISGLHREEEIVDGNTSLDFIEYVCKKKYGEMHACGAACGAILGGAAEEEIQKLRNFGLYQGTLRGMMEMKNSHQLIDENIIGKLKELALEELGGFHGKNAELMSSLVAEPSLYAAHHHHHHHH”, the “soluble on expression in E. coli” value is listed as “soluble”.

As for “MHPGIDSMSSNINCENNPFSFYGNPHKSVIIHGKEGTELLKEKGEDCKTFENSQQYFLWCCVQQQMYHYQLLSTAFASYGFEPPRIPGAFPHHIPPIFNGSMKCLRDREVFNQSGFLYVNVSPDTYQETRQEAPVEQRNQWSEKSKTTSKKSICKVLFECTNSSLLENAENRSIFSKQGSGSHVGENSKNPSEDSGQSGRLSQNATAEHNVLEKHLQEEYQMAKNTVNESFDSLKECSAASVIKGSYLLSQVVHIPEDAIEPEIPPDLQGPGGHVFLRMLSRSWRQYKRALEHNE”, the “soluble on expression in E. coli” value is given as “not soluble”. For the sequence “SKLTRKMVLTRAKASELHSVRKLNCWGSRLTDISICQEMPSLEVITLSVNSISTLEPVSRCQRLSELYLRRNRIPSLAELFYLKGLPRLRVLWLAENPCCGTSPHRYRMTVLRTLPRLQKLDNQAVTEEELSRALSEGEEITAAPEREGTGHGGPKLCCTLSSLSSAAETGRDPLDSEEEATSGAQDERGLKPPSRGQFPSLSARDASSSHRGRNVLTAILLLLRELDAEGLEAVQQTVGSRLQALRGEEVQEHAE”, the “soluble on expression in E. coli” value is “soluble”.

Turning to “MSKNIKTPTNQKVLTNVAVVRMKKTGKRFEIACYKNKVVNWRNKSEKDIDEVLQTHTVFSNVSKGQLSKKEELIAAFGIEDQLEICKIILDKGDLQVSEKERQAASDQSLKEVSQLIASMVVNPETKRPVPPSVIDKALQEMHFSLKPNRSSKQQALDAIPKLRETLKIERAKMKIRVAIPTKEAKSVHTKLKTLFSDVEVDDWQDGSLEMVGLIEPGSFRALDDLVRNETKGHGRLEILSLKDVVEGELQIS”, the “soluble on expression in E. coli” value was “soluble”.

For “MVLFSEDHIQETRRRGRIEVICGSMFSGKTEELIRRMKRAKFARQRVEIFKPAIDTRYSEEDVVSHDSHSIASTPIDSSASILLFTSEIDVVGIDEAQFFDDGLIDVCRQLANNGIRVIIAGLDMDFKGNPFGPMPQLCAIADEVSKVHAICVKCGDLASFSHRTVKNDKQVLLGETAEYEPLCRECYLRARGEDGQKILEHHHHHH”, the “soluble on expression in E. coli” value is “soluble”. Consider “MALRSVCRWHNGEPAVLSSYGLRVRLSRMEDQCRVLAAAVETLDDVFYVYDADGKLAYWNARLNELFGLTDGELSGMDPTEFFVADDRAAVEAAIEDVFESGQTSVEARAETTEGVVTFELSGRLLTGDDGTVQGFSGVGRDIT”, for which the “soluble on expression in E. coli” value is reported as “not soluble”.

As to “MNSPLDVKDLIDLGRDPVVVFNPPSIGTPDRIERYHAALEWLIGRERPFVLVTRADGDEASESHEDRKSRAVWFKNNLMALAQVCRGFVYVEQDEARRAAWQVRAEGMAKTFPVPMIIAGDMEAAITQALDLVKASRDPAPGGSPHA”, the “soluble on expression in E. coli” value is on record as “not soluble”. On to “MDAYRYWSREAIRADIDTRRHCLHIAIENFENDANIGTVVRTANAFAVDTVHIVGRKRWNRRGAMVTDRYQHLMHHPTTADVVAWAKQQGLTIVAIDNTPGCVPLETAELPERCLLLFGQEGPGVTQEAQDNARMTCSIAQFGSTRSINAGVAAGIAMHAWIRQHADLDNAW”, for which the “soluble on expression in E. coli” value was “not soluble”.

As for “SSSSQHFNLNFTITNLPYSQDIAQPSTTKYQQTKRSIENALNQLFRNSSIKSYFSDCQVLAFRSVSNNNNHTGVDSLCNFSPLARRVDRVAIYEEFLRMTHNGTQLLNFTLDRKSVFVD”, the “soluble on expression in E. coli” value is on record as “soluble”. The entry for “GPGSMVALIDTSCYSADCTLSALVPQHAMKPYRLLVTMELIASLGLKRFCRTVVPPPIGIKELLTYHAEDYILNLGLHSNRSWLWNTEVSKVTFSGDCPPVEGIVEYSLSTVSGSLMAAVLLNSGAVDTAIHWGGGMHHAKCGECSGFCYVNDIVIAIIELLKCHDRVLYVDLDMHHGDGVDEAFCRSRRVFTLSLHKFGESFFPGTGHPRDVGIGNGRHYTMNLAMWDGVDDFYYTTVFERALRSIVKRFNPNVVVLQCGADSLAGDRLGHFNLSSWGHGKCVEEVKKLGLPMLVVGGGGYTLRNVAKLWAYETSILCGKRLPLNTVIPLHRMPLSGWLFEESPQLLVSQDEENKPLPGVNVQRSFRVIIEQIDKHCPNIMTV” is “not soluble”; for “MIITVASFKGGVGKTTTAVHLSAYLALQGETLLIDGDPNRSATGWGKRGSLPFKVVDERQAAKYAPKYQNIVIDTQARPEDEDLEALADGCDLLVIPSTPDALALDALILTIETLQKLGNNRFRILLTIIPPYPSKDGDEARQLLTTAGLPLFKRGIKRYSAFQKASLNGVVVSEVSDSKAGIAWSDYKATGKEIVEEILILEHHHHHH” it is “soluble”; for “GIVPYGGNLTVLDLVQKYIGQKKGVRHNTQANYDFVINIIKKEEFGTRRIDKIKLSDAKAWFIKLQADGRGYSSIHSVRGIVRPAFQMAVEDDLLRKNPFEFQLCTVVVNDSVTRQAITKEQEELFLEFIRNDDHYSKYYNGMFILFKTGLRISEFCGLTVKDIDLQERKINVNHQLQRTRGMQYVIEDTKTSSGTRMLPMTDEVYECFEQIVKNRKKVRVEPIVDGYSRFLFLDKKDMPEVALHWEKHFQWALGKYNRTHEEQMPKITPHVCRHTYCSNMAKAGMNPKALQYLMGHSDIGVTLNVYTHLGLIDAKEEMNRIAKLA” it is “not soluble”. Then “MNVLDEPDRLHGAHVPIRRGSVRQLQWWEPTPAERVRVLAWTCDCQARFYELCQSGGMVYIRRTVQKDPEPEISETHRWPVQEGWRVWFDLLTGEVR”, with “not soluble”; and “MRGSHHHHHHTDPALRASIKNLPADYLLAAQQGDIDKVKTCLALGVDINTCDRQGKTAITLASLYQQYACVQALIDAGADINKQDHTCLNPFLISCLNDDLTLLRIILPAKPDLNCVTRFGGVGLTPACEKGHLSIVKELLAHTEINVNQTNHVGWTPLLEAIVLNDGGIKQQAIVQLLLEHGASPHLTDKYGKTPLELARERGFEEIAQLLIAAGAGLCGR”, with “soluble”.

“DIHRQAYAAMLHSSQSSLGTALKFFHAQSVIDNAYDQEHVHYIDRQVKTRKGMPEASADSIRALLEIDLPARGYSKIDVPCKGSDFCIIGQQHPNSAHFVAIPDYQFLDKSGFDRVVYIWPQGYTLAEEACYFYYVNQASTDSIVRGHVTQGC”: the “soluble on expression in E. coli” value is given as “not soluble”. The entry for “MGSDKIHHHHHHMRNYCRWCENDPLLIAYHDKEWGQREGNDQRLFEAMCLELFQSGLSWKTVLQKRDSIRKAFHHFELEKVATMNEQDVERLLKDKGIIRHRKKIEATIQNSRNVVRLQREFGSFREWIESLPNDVEAKAAMISEMFTYMGPITAKSFLEATGFIPVEHDKQCHLFEGKSLQIKPIGTADRGEVQQFFHQHWGSPEMVLSTGVFHCERLPGFLYRNKLGEIIGLITYVTHGKRSIEIISLDSVEEGKGIGTSLLQAVEAEAIEQQVRQIEVITTNDNLHALGFYQKRGFQLKELVVNGVEKARQLKPSIPRKSADGIPIRDELKLVKTMR” is “not soluble”; for “MGSDKIHHHHHHMSNTLLFRPNEARALSALFRTGGLTRASLARELDLTRSTTGTLVQNLVDAGLARERESTTGNEAEPKVGRPGIVVEIAGSGVFFLGAYIGVNRIDVIAIDLSGTVRAKATRPFSGAASRPAQAMELIVALVDEVRRTLPPGARPHGLNVALPGFLDGDGETFHAAILGWHGVSLAQPISESIDLDVPVLLENDANAVAVAETYRSAPPDGKGDDSLVVLIENGVGGGIVSNGKLHRGQLGGAGEIGHMPIGEAGFVYDAVRPGRWETFIGKDALLARYAHISGVIGSLDAFIAVLASGDPTALACARDWARWLVRGLATLACVLQPGRIILAGSVSAIYPFVAEQTEALLAASLIEGYPTPRVETSSTGNDGPALGAAYLLHQAMLAGNTRPHMRDVAVL” it is “not soluble”; for “MGSDKIHHHHHHMDVLRCENLKKRFGRRYVVNGVNLEFHRGEIVGLLGPNGAGKTTIFNMILGVVVPTSGKIIFRDVDITKFPVYRRARLGITYLQQETSIFGGLTVRENIDLVLRFHEKDKEKRERKIEELLHEFHLKHLENQPASFLSGGEKRKLELARMMCLNPAFILLDEPFSGIDPKTVKEIQKMTLELKQKNFGIVITDHNVDELVEIADRIYVIYKGEILAEGSPERILEDETVREVYLGT” it is “not soluble”.

On to “MAFLGLFSLLVLQSMATGATFPEEAIADLSVNMYNRLRATGEDENILFSPLSIALAMGMMELGAQGSTQEEIRHSMGYDSLKNGEEFSFLKEFSNMVTAKESQYVMKIANSLFVQNGFHVNEEFLQMMKKYFNAAVNHVDFSQNVAVANYINKWVENNTNNLVKDLVSPRDFDAATYLALINAVYFKGNWKSQFRPENTRTFSFTKDDESEVQIPMMYQQGEFYYGEFSDGSNEAGGIYQVLEIPYEGDEISMMLVLSRQEVPLATLEPLVKAQLVEEWANSVKKQKVEVYLPRFTVEQEIDLKDVLKALGITEIFIKDANLTGLYDNKEIFLSKAIHKSFLEVNEEGSEAAAVSGMIAISRMAVLYPQVIVDHPFFFLIRNRRTGTILFMGRVMHPETMNTSGHDFEEL”, for which the “soluble on expression in E. coli” value was “soluble”. As to “FEPMMQRDKIMQNLSYISDVNVLPDWMTVSQLLSYTEGVHPGFNRSKADALLRQTDIKPRAKIRALSKGMKVQLHLAIVIATNTQILILDEPTLGLDLVYRDTFYRHLLEWFHDGERVLIITSHEVSEIEHLLTDVLILKHGRPVLQTSMESISEDYFILDANDEHRAQIEAMHPLSSQKGLGTTKWLLSSQYADQAAGLGDVHGVKLADLFLALQKEAA”, the “soluble on expression in E. coli” value is listed as “not soluble”. For the sequence “MNIATRPADYWQAIIFDFDGVIVESGDIKAQAFAELYRHHGETIAQAAVTYHRANGGMSRYLKFHYFQQNLLNYPPLTKEEEQELDRRFSELVMNAVISCQPVAGAEALLHRMVDQIPLFVASGTPESELRIIVEQRDLSRYFTEVRGSPRLKETLVADILSAYPLVPERVLMIGDALVDYESAHQNGIAFLGRVRPGDDNPFPESVEIVPDLCPVAI”, the “soluble on expression in E. coli” value is reported as “soluble”. The entry for “MSLEQVEILRKFIQRVQAMKSPDHNGEDNFARDFMRLRRLSTKYRTEKIYPTATGEKEENVKKNRYKDILPFDHSRVKLTLKTPSQDSDYINANFIKGVYGPKAYVATQGPLANTVIDFWRMIWEYNVVIIVMACREFEMGRKKCERYWPLYGEDPITFAPFKISCEDEQARTDYFIRTLLLEFQNESRRLYQFHYVNWPDHDVPSSFDSILDMISLMRKYQEHEDVPICIHCSAGCGRTGAICAIDYTWNLLKAGKIPEEFNVFNLIQEMRTQRHSAVQTKEQYELVHRAIAQLFEKQLQLYEIHGAQKIADGVNEINTENEGHHHHHH” is “soluble”; for “KLSNGMNGSEAAVHEVPEYTGPLGTSGEEPAPTVEKPEYTGPLGTSGEEPAPTVEKPEYTGPLGTAGEEAAPTVEKPEFTGGVNGTEPAVHEIAEYKGSDSLVTLTTKEDYTYKAPLAQQALPETGNKESDLLASLGLTAFFLGLFTLGKKREQ” it is “not soluble”; for “MGSSHHHHHHSSGLVPRGSHMKNYARISCTSRYVPENCVTNHQLSEMMDTSDEWIHSRTGISERRIVTQENTSDLCHQVAKQLLEKSGKQASEIDFILVATVTPDFNMPSVACQVQGAIGATEAFAFDISAACSGFVYALSMAEKLVLSGRYQTGLVIGGETFSKMLDWTDRSTAVLFGDGAAGVLIEAAETPHFLNEKLQADGQRWAALTSGYTINESPFYQGHKQASKTLQMEGRSIFDFAIKDVSQNILSLVTDETVDYLLLHQANVRIIDKIARKTKISREKFLTNMDKYGNTSAASIPILLDEAVENGTLILGSQQRVVLTGFGGGLTWGSLLLTLEF” it is “soluble”.

(Values after the DeepSol protein solubility set.)
